± gives the standard deviation.
Test: protein stability index of a GFP-peptide fusion (GPS, HEK-293T) (PSI 1-6); higher = more stable
[1] = treatment: DMSO, c terminus: a fixed tail appended
[2] = treatment: MLN4924 1 uM, 8 h, c terminus: a fixed tail appended
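Further: 24-mer peptide tiles fused after GFP, lentivirally expressed, FACS-sorted into six equal bins by GFP/DsRed ratio, decoded by Illumina sequencing, PSI is the read-weighted mean bin number.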

Sequence | protein stability index [1] | protein stability index [2] | protein stability index (treatment: DMSO, c terminus: native) | protein stability index (treatment: MLN4924 1 uM, 8 h, c terminus: native)
ISSSSFGAEPSAPGGGGSPGACPA [RTN3] | 4.72 ± 0.51 | 4.97 ± 0.089 | – | –
VVETVFFLTSRTRALLRRFPRMLL [ZSWIM9] | 2.89 ± 0.095 | 2.87 ± 0.3 | – | –
SILRELDTSMDGTEPPQNPVTPLG [SERTAD3] | 4.35 ± 0.13 | 4.38 ± 0.18 | – | –
DQIRQGIQLKSVADGQESTPPTPA [WASL] | 5.33 ± 0.16 | 5.51 ± 0.15 | – | –
EENMERIGEEVRQLMEKLREKQLS [BEX1] | 4.57 ± 0.38 | 4.35 ± 0.5 | – | –
YLPPERIREKSRLFDTKHDVYSFA [RIPK4] | 2.62 ± 0.24 | 2.72 ± 0.25 | – | –
ASKEEKEDWLSHALSRKKSQGLAR [FBF1] | 4.57 ± 0.18 | 4.57 ± 0.32 | – | –
LLQQNKSIQSLTLEWNSLGTWDDA [LRRC45] | 2.65 ± 0.094 | 2.64 ± 0.42 | – | –
MSVDPACPQSLPCFEASDCKESSP [NANOGP8] | 5.44 ± 0.23 | 5.41 ± 0.33 | – | –
TLGEQGLPHQSHRQRSSLAKINIV [SCNN1D] | 3.27 ± 0.28 | 3.33 ± 0.1 | – | –
NIYETGDVCISILHPPVDDPQSGE [CDC34] | 4.52 ± 0.11 | 4.51 ± 0.29 | – | –
SNLETIFRIIDSDHSGFISLDEFR [PPEF2] | 2.52 ± 0.24 | 2.73 ± 0.36 | – | –
MTQQGAALQNYNNELVKCIEELCQ [SSNA1] | 3.33 ± 0.4 | 3.4 ± 0.31 | – | –
QMELLLVNKLKWNLAAMTPHDFIE [CCND1] | 2.91 ± 0.6 | 2.71 ± 0.5 | – | –
DSDENSKPSVDTEGPALVEIDRSV [MIA2] | 5.16 ± 0.78 | 5.29 ± 0.56 | – | –
DDYTSAIEVQPNFEVPYYNRGLIL [TTC32] | 2.4 ± 0.45 | 2.42 ± 0.38 | – | –
PPKSVNPTCMCCQATSSTACHIQ [FAM219A] | – | – | 2.92 ± 0.29 | 3.07 ± 0.16
NIHQLQNRLSELEVANKDLTERKY [SASS6] | 3.42 ± 0.15 | 3.62 ± 0.34 | – | –
YKIVTAREWRCCPGHSGVSCEEVA [EMID1] | 2.49 ± 0.32 | 2.39 ± 0.41 | – | –
VPQLVTGRCATRAFHRKSHSLDLN [RNF180] | 2.35 ± 0.2 | 2.6 ± 0.41 | – | –
DLNNCKNNLEPILEGYISNLRKQL [KRT71] | 2.58 ± 0.21 | 2.76 ± 0.5 | – | –
EFLTNELSRKLMQLQHEKAELEQH [CCDC6] | 2.98 ± 0.16 | 3.05 ± 0.3 | – | –
PRNKTENGLTPKKKIQVNSKPSIQ [ATF6] | 4.24 ± 0.31 | 3.96 ± 0.17 | – | –

Sequence | protein stability index [1] | protein stability index [2] | protein stability index (treatment: DMSO, c terminus: native) | protein stability index (treatment: MLN4924 1 uM, 8 h, c terminus: native)
TIEQSLLEVMEEEELANLRASQRE [RSPH3] | 4.68 ± 0.24 | 4.88 ± 0.18 | – | –
FQPQPVQPQQGYIPPMAQPGLPPV [ZNF207] | 3.5 ± 0.31 | 3.74 ± 0.26 | – | –
NNSNLQRMGSSESTDSGFCLDSPG [CDC25A] | 4.43 ± 0.92 | 4.8 ± 0.3 | – | –
LLYLLHILLLDGAAWLTLWVFGTS [FADS1] | 3.38 ± 0.24 | 2.49 ± 0.25 | – | –
DSYSSTQHVPEELDLSSSSQMSPL [ATF6] | 5.29 ± 0.12 | 5.28 ± 0.073 | – | –
FGLSILWVLLFTPCSFVCWYRPMY [SCAMP3] | 2.97 ± 0.37 | 3.48 ± 0.32 | – | –
GAQELLEFTIRDLQRLGELQSELA [INTS4] | 2.54 ± 0.36 | 2.79 ± 0.29 | – | –
STKTPAPCSEFMEPSSDPSLLGEP [SPAG8] | 5.24 ± 0.44 | 5.25 ± 0.081 | – | –
ELLVYIVFLVDICLLTYGMTSSSA [PKD2L1] | 3.19 ± 0.45 | 2.93 ± 0.67 | – | –
VEVDESEPYPSQLLKPIPEYSPEE [TRAF3IP2] | 5.48 ± 0.44 | 5.46 ± 0.35 | – | –
ILKRTGQRYEHGRTLKSYLGLTNQ [ZNF649] | 2.44 ± 0.24 | 2.63 ± 0.099 | – | –
ENMVTVGFFSCMGTLCIGAAAFSQ [KCNK9] | 3.39 ± 0.5 | 2.91 ± 0.16 | – | –
YTRLGEMNNAVRNLQELLELDSSS [CEP70] | 3.77 ± 0.22 | 4.06 ± 0.17 | – | –
HSVTGFLCEPDPVHFSEAIEKFIR [ALG2] | 2.8 ± 0.21 | 2.93 ± 0.26 | – | –
QVQCHSYTGYCWCVTPNGRPISGT [SMOC2] | 2.08 ± 0.26 | 2.37 ± 0.38 | – | –
KNEPYLEAACNDVDRWPAPVPGKT [DENND6A] | 4.62 ± 0.23 | 4.67 ± 0.19 | – | –
KIKDARKGPLVPFPNQKSEAAEPP [KMT5A] | 4.95 ± 0.22 | 5.11 ± 0.19 | – | –
EEMRELRRKIRELQLRYSLRILIG [BEX5] | 2.76 ± 0.75 | 2.5 ± 0.51 | – | –
ESSSPARGIAIVSVLVILISIVIF [KCNA4] | 3.13 ± 0.59 | 2.9 ± 0.33 | – | –
AEKLCIYTDNSIRPEELLQMELLL [CCND1] | 2.28 ± 0.078 | 2.09 ± 0.36 | – | –
PPYQGGPPRPPMGMRPPVMSQGGR [ZNF207] | 4.68 ± 0.34 | 4.91 ± 0.16 | – | –
HETESTSDKETDIDDRYGDLDSRT [CDS1] | 5.42 ± 0.19 | 5.6 ± 0.22 | – | –
SDGVYAIVATLLILDICEDNVPDP [TMEM175] | 2.86 ± 0.39 | 2.84 ± 0.51 | – | –

Sequence | protein stability index [1] | protein stability index [2] | protein stability index (treatment: DMSO, c terminus: native) | protein stability index (treatment: MLN4924 1 uM, 8 h, c terminus: native)
SLQDASRGDPAHAGLAELGHRLAQ [PBXIP1] | 4.33 ± 0.34 | 4.38 ± 0.27 | – | –
RNGAVRRFGQTIQSFTLRGDHRSP [NET1] | 3.36 ± 0.31 | 3.49 ± 0.13 | – | –
APWLSLFPPEGNMEDKEMTGPQLP [ZNF263] | 4.27 ± 0.27 | 4.75 ± 0.28 | – | –
PKTMSQKEMEQLFSQYGRIITSRI [ELAVL3] | 2.68 ± 0.18 | 2.76 ± 0.35 | – | –
RHRSADVLGVADGVGGWRDYGVDP [PPTC7] | 4.14 ± 0.39 | 4.07 ± 0.48 | – | –
MVGGNAVPQRTAGGDVPERELYIR [MYORG] | 3.9 ± 0.28 | 4.29 ± 0.16 | – | –
QPAKKPLLWSDPADNKIVSHLLVA [ESRRG] | 2.36 ± 0.17 | 2.63 ± 0.26 | – | –
RGPVVPKHSTFGQSLTQRLHALKL [GNAS] | 2.4 ± 0.29 | 2.36 ± 0.28 | – | –
CRKFPRDMKAMSPENQEYFEKHRW [RHOBTB2] | 3.22 ± 0.2 | 3.18 ± 0.29 | – | –
EREAEKEQKRLERLQRKLVEPKHC [SDE2] | 4.7 ± 0.17 | 4.82 ± 0.085 | – | –
SLFIALITGAYDTIKHPGGAGAEE [MCOLN1] | 2.45 ± 0.58 | 2.2 ± 0.44 | – | –
HVTNAMVLVNVLQAIYVIDFFWNE [DHCR7] | 3.08 ± 0.17 | 2.99 ± 0.34 | – | –
KRYSMYLTPKGGVRTSYQPSSPGR [TRIM29] | 3.15 ± 0.28 | 3.37 ± 0.41 | – | –
LYTGELDENERDLMHIAHIAELLE [RHOBTB2] | 2.69 ± 0.33 | 3.09 ± 0.34 | – | –
CNGILTEKMEEEEQTCDPDSSLHW [ZNF396] | 5.13 ± 0.18 | 5.01 ± 0.28 | – | –
GFEESEPLTGFLTTVPDGPTQLRA [TNXB] | 4.44 ± 0.41 | 4.52 ± 0.3 | – | –
LSLRQTGSPGMIYSTRYGSPKRQL [KCNAB2] | 2.98 ± 0.51 | 3.17 ± 0.31 | – | –
QNNENNISCVERGWSTPPKCRSTI [CFHR2] | 3.97 ± 0.29 | 4.11 ± 0.34 | – | –
RGEAEAFAIGARARAEAEQMAKKA [FLOT1] | 5.33 ± 0.27 | 5.17 ± 0.26 | – | –
TRKHYQVTGYGINGTGDSNDFWRI [POMT2] | 2.34 ± 0.25 | 2.32 ± 0.28 | – | –
CNTFVYSSSKGTIRLCDMRASALC [PPP2R2B] | 2.5 ± 0.53 | 2.34 ± 0.51 | – | –
GSSETNLLQHLLEACGRCEEVPEA [PYCR3] | 3.74 ± 0.19 | 4.19 ± 0.14 | – | –
DDSPRSALAAATAAAAAAASAAAA [SPAG8] | 4.79 ± 0.39 | 4.86 ± 0.42 | – | –

Sequence | protein stability index [1] | protein stability index [2] | protein stability index (treatment: DMSO, c terminus: native) | protein stability index (treatment: MLN4924 1 uM, 8 h, c terminus: native)
KAVEEELDAEDRPAWNSKLQYILA [SLC6A17] | 2.96 ± 0.38 | 3.15 ± 0.24 | – | –
IHSHHDGVLRPTVRPGTPPDFILK [CTDNEP1] | 3.66 ± 0.18 | 3.72 ± 0.21 | – | –
TPEAKDLINKMLTINPSKRITAAE [CAMK2A] | 4.28 ± 0.17 | 4.42 ± 0.1 | – | –
GRGAQGENERVRGLETGDWGGAPK [ZSWIM9] | 5 ± 0.21 | 4.98 ± 0.24 | – | –
EYEGGHIKTAVNLPLERDAESFLL [CDC25B] | 3.91 ± 0.16 | 3.97 ± 0.21 | – | –
RDQIFRYVHDPECVATTGDITVSV [FBXO3] | 2.52 ± 0.2 | 2.42 ± 0.27 | – | –
DVVFEIQGTTVPAHRAILVARCEV [RHOBTB3] | 2.69 ± 0.85 | 2.51 ± 0.44 | – | –
IPISLETQAHIQECKHPSVFQHGD [MCOLN1] | 4.26 ± 0.23 | 4.21 ± 0.14 | – | –
AGPAFDSDPEISDVDEDEPGGLVG [PPFIA4] | 5.19 ± 0.56 | 5.77 ± 0.07 | – | –
GHEYAAKIINTKKLSARDHQKLER [CAMK2B] | 4.09 ± 0.24 | 4.32 ± 0.19 | – | –
RIFAHKIYLSTSSSKFYDLFLMDL [RHOBTB2] | 2.97 ± 0.31 | 2.86 ± 0.66 | – | –
VLDLQRIFALYSSLKFKSRVPQTW [PLD5] | 3.19 ± 0.94 | 2.09 ± 0.26 | – | –
AEWLLAVRSIQPEEKERIGQFVFA [AASDHPPT] | 2.29 ± 0.15 | 2.13 ± 0.18 | – | –
EMLTGQERVALANRKRECGNAHYQ [FKBP8] | 3.71 ± 0.23 | 3.86 ± 0.27 | – | –
EQFHEAASKMESTIKPRRVEPVCS [CHCHD6] | 4.42 ± 0.31 | 4.61 ± 0.14 | – | –
MASNERDAISWYQKKIGAYDQQIW [PHTF1] | 2.51 ± 0.39 | 2.55 ± 0.16 | – | –
DEWACELRLFGRVLERAACLRRCK [P3H4] | 2.74 ± 0.49 | 2.8 ± 0.6 | – | –
LMLELKSLQEEPVEGFRITLVDES [UBE2R2] | 2.6 ± 0.39 | 2.77 ± 0.17 | – | –
SFQLFVEGYKDADYWLRRFEAEPL [PI4K2A] | 1.92 ± 0.41 | 2.35 ± 0.25 | – | –
VKRKKNVLRLCCKKLKIFAMPMQD [PRAME] | 2.29 ± 0.37 | 2.2 ± 0.15 | – | –
